Laboratory results taken from US20180273614A1 (GALAPAGOS, published 2018).

T1: murine IL-17C (mouse, UniProt Q8K4C5 17-194, limits assumed)
T1 construct: Endogenous IL-17C in paraffin sections of ear skin of BALB/c mice (IHC); also called IL-17C (mouse skin)
T1 sequence (looked up): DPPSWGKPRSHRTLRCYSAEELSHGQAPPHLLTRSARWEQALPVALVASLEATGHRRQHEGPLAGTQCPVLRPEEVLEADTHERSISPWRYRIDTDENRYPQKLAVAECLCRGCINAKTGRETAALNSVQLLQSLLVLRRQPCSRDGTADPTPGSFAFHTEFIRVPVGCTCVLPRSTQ

T2: human IL-17C (human, UniProt Q9P0M4 19-197)
T2 construct: Endogenous IL-17C in paraffin sections of human skin biopsies (IHC); The background calls IL-17C a secreted homodimer; also called interleukin 17C
T2 sequence: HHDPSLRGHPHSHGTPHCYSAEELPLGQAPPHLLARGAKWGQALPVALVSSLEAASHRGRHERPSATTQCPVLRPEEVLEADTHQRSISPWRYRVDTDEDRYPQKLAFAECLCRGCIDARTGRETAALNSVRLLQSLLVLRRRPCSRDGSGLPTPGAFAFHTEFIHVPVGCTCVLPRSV


Assays:
murine IL-17C = molecular target: T1, murine IL-17C; assay: IHC on paraffin sections of mouse ear skin (MC903 model), biotinylated antibody
Method: (§1) 4 μm-thick slices from paraffin-embedded skin biopsies from healthy subjects and subjects with atopic dermatitis were analyzed by IHC. Staining for IL-17C expression was performed with biotinylated MOR22420 (and MOR03207 isotype control antibody). In brief, sections were deparaffinised, rehydrated and unmasked by heat epitope antigen retrieval. Endogenous peroxidase was blocked in BLOXALL™ Blocking Solution (Vector Laboratories) and non-specific binding was blocked with 2.5% Horse Serum Blocking Solution (Vector Laboratories). The primary antibodies were incubated for one hour at room temperature. Binding of MOR22420 biotinylated antibody and MOR03207 biotinylated antibody was detected by incubation with Avidin Biotin Peroxidase Complex (Vector Laboratories). The signal was developed using the peroxidase substrate diaminobenzidine tetrahydrochloride (Sigma). Mayer's hematoxylin (BDH) was used for counterstaining before dehydration and mounting of slides.
At sacrifice, samples form ear skin were collected and fixed in 4% formaldehyde before embedding in paraffin. […] Five fields per ear (high power field ×20) covering the whole ear from top to bottom were measured, and the 5 values were averaged per ear and per mice (left/right ear). […]

human IL-17C = molecular target: T2, human IL-17C; assay: IHC on paraffin sections of human skin (healthy and atopic dermatitis), biotinylated antibody, avidin-biotin-peroxidase detection
Method: as §1

binding result (murine IL-17C) | binding result (human IL-17C) | Binder
binds | – | MOR12743 (antibody, V domains shown, Said to be disclosed and characterized in WO 2013/057241; also called anti-IL-17C biotinylated MOR12743 antibody; anti-IL-17C MORI 2743 antibody) VH: QVQLVQSGAEVKKPGASVKVSCKASGYTFTSNFIHWVRQAPGQGLEWMGWISPYNGDTNYAQKFQGRVTMTRDTSISTAYMELSRLRSEDTAVYYCARESVYYGSDYGYNGMDIWGQGTLVTVSS VL: DIELTQPPSVSVSPGQTASITCSGDNLGEEYVSWYQQKPGQAPVLVIYDDTKRPSGIPERFSGSNSGNTATLTISGTQAEDEADYYCASWDLWSVEVFGGGTKLTVLG
– | binds | MOR22420 (antibody, V domains shown, also called biotinylated MOR22420; MOR22420 antibody) VH: QVQLVQSGAEVKKPGSSVKVSCKASGGTFSSYAISWVRQAPGQGLEWMGTIDPFFGKTYYAQKFQGRVTITADESTSTAYMELSSLRSEDTAVYYCARDVSSISYYFHEYYSDRFDYWGQGTLVTVSS VL: DIALTQPASVSGSPGQSITISCTGTSSDVGGYEYVNWYQQHPGKAPKLMIYDDSYRPSGVSNRFSGSKSGNTASLTISGLQAEDEADYYCQSTDPHSTVVFGGGTKLTVLG
